The text below walks through data of patent US20200172582A1 (UNIVERSITY OF FLORIDA RESEARCH FOUNDATION, published 2020).

For test [1], the target named is T1, hFc (human, UniProt P01857-1 104-330 = IgG part, limits assumed).
T1 construct: domain: Fc; Fc-only control in the SlpA bead assay; also called human Fc
As to the kind of experiment: flow cytometry of SlpA-coated beads with hFc fusion proteins. How it is done:
(§1) FIGS. 5A-5D. L. acidophilus NCK2187 and its SlpA bind to murine SIGNR3 to induce regulatory signals. A. B6 mice were orally gavaged with 10⁹ CFU NCK56 or NCK2187 and the colonic gene expression of C-type lectin receptors were measured by RT-PCR. Each box represents an individual mouse; n=4. Data represent three individual experiments and are shown as mean±SEM. B. Binding of SlpA to various hFc fusion proteins were analyzed by flow cytometry. Gray tinted line=SlpA-coated beads only; orange=SlpA-coated beads+secondary antibody; green=SlpA-coated beads+control fusion protein; blue=SlpA-coated beads+SIGNR1-hFc; red=SlpA-coated beads+SIGNR3-hFc. Binding assays results were confirmed five independent times. C. […] production by colonic DCs of naïve WT B6 GF or Signr3^{-/-} mice treated with NCK56 (blue) or NCK2187 (green) on days 0, 3, 6, and 9, or left untreated (black), as determined by flow cytometry. D. Frequency of colonic FoxP3⁺ Tregs in KO mice treated with NCK56 or NCK2187 was measured by flow cytometry. n=5 mice/group. Data represent four individual experiments and are shown as mean±SEM. *P<0.05. […]
(§2) C-type lectin receptors, SIGNR1 and SIGNR3, were fused to the Fc part of human IgG1 (SIGNR1-hFc and SIGNR3-hFc) as previously described (Eriksson et al., 2013). […] Binding of SlpA-coated beads (Dynabeads MyOne Carboxylic Acid, Life Technologies) to fusion proteins was analyzed by flow cytometry.

The target in test [2] is T2, SIGNR1-hFc (extracellular region of murine SIGNR1 fused to the Fc part of human IgG1) (mouse; human, UniProt Q8CJ91 74-325; P01857 104-330 = IgG part, limits assumed).
T2 construct: extracellular domain;domain: Fc part of human IgG1; Expressed in CHO-S cells
Described as above. How it is done: as §1, §2

T2 sequence (Q8CJ91 other isoform, or with tags, fused parts or gaps limits assumed): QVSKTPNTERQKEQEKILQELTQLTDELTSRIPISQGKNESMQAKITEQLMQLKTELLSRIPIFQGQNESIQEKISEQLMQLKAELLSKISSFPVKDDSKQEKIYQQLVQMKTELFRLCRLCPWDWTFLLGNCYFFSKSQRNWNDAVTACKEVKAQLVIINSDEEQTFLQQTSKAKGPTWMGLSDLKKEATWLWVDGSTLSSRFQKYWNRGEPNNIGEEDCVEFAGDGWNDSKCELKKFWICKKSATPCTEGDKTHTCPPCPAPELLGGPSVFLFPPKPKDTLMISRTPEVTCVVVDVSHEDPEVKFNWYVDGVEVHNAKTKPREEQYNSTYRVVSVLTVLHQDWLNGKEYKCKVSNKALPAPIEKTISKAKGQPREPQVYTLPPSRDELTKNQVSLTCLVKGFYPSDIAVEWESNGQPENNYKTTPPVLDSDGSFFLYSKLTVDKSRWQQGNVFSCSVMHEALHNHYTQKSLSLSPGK

B1: Lactobacillus acidophilus surface layer protein A (SlpA), purified from strain NCK2187 (other)
chain: AVSTVSAATTINASSSAINTNTNAKYDVDVTPSVSAVAANTANNTPAIAGNLTGTISASYNGKTYTANLKADTENATITAAGSTTAVKPAELAAGVAYTVTVNDVSFNFGSENAGKTVTLGSANSNVKFTGTNSDNQTETNVSTLKVKLDQNGVASLTNVSIANVYAINTTDNSNVNFYDVTSGATVTNGAVSVNADNQGQVNVANVVAAINSKYFAAQYADKKLNTRTANTEDAIKAALKDQKIDVNSVGYFKAPHTFTVNVKATSNTNGKSATLPVVVTVPNVAEPTVASVSKRIMHNAYYYDKDAKRVGTDSVKRYNSVSVLPNTTTINGKTYYQVVENGKAVDKYINAANIDGTKRTLKHNAYVYASSKKRANKVVLKKGEVVTTYGASYTFKNGQKYYKIGDNTDKTYVKVANFR
notes: Native protein extracted from the surface of L. acidophilus NCK2187 with 5 M LiCl or 5 M NaCl (46 kDa band); In the assays it was coated on carboxylated beads or ELISA plates, blotted, or pulsed onto RAW 264.7 cells; also called L. acidophilus-SlpA; purified SlpA
Turning to B1, the binding result in test [1] and in test [2] was “no binding” in each case.
